Consider 1 molecule from US20220106391A1.

The target of assay [1] is canine beta-NGF (cNGF) (canine). Nature of the assay: SPR (Biacore), cNGF binding; KD column of Table 7.
The target is the same in assay [2]. Nature of the assay: SPR (Biacore), cNGF binding. In general terms: SPR reads the build-up and loss of mass on a sensor chip optically.
The next assay has as its target NGF (species not stated). Nature of the assay: cell-based or functional assay.
The next assay deals with rat NGF (rat) (UniProt P25427). The assay is described as follows: cell-based or functional assay.
Sequence of rat NGF (rat) (P25427 122-241 limits assumed): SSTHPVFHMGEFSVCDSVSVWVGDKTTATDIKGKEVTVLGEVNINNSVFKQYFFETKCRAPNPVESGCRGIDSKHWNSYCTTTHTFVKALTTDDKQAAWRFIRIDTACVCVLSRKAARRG

Sequence of canine beta-NGF (cNGF) (canine) (Q29074 110-229 N171T limits assumed): as the sequence (P25427 122-241 limits assumed) above, with T3S, M9R, T37M, A60D, N62T, E65D, T92M, D94G, A117G, G120A counted along it

B1: ZTS-182m6 (antibody, V domains shown)
VH: EVQLVESGGDLARPGGSLKLSCVVSGFTLTQYGINWVRQAPGKGLQWVTVIWATGATDYNSALKSRFTVSRDNAMNTVYLQMNSLRVEDTAVYYCARDGWWYATSWYFDVWGQGTLVTVSS
VL: DIVMTQTPLSLSVSPGEPASISCKASQDINHYLNWFRQKPDGTVKLLIYYTTRLQAGVPSRFSGSGSGTDFTLRISRVEADDAGVYYCQQGDHFPRTFGQGT
Usually Kd stands for the concentration at which binding is half-saturated. A lower Kd goes with higher affinity. A word on the koff: it is the rate constant with which the complex falls apart. Read a low koff as slow dissociation. A word on the kon: it is the rate constant with which the complex forms. A lower kon goes with slow association. For the molecule B1, in assay [1], the Kd worked out at 4.34 pM. Moreover, in assay [2], the Kd came out at 4.34 pM, the koff was 1.54e-08 s⁻¹ and the kon is 3560 M⁻¹ s⁻¹. Further, in the assay with NGF (species not stated), the IC50 nM (TF-1 proliferation inhibition, NGF 2.0 ng/ml) turned out to be 0.087 nM and the IC50 µg/ml (TF-1 proliferation inhibition, NGF 2.0 ng/ml) came out at 0.0131 µg/mL. In the assay with rat NGF (rat), this molecule gave an IC50 nM (inhibition of neurite outgrowth, PC12 cells, rat NGF 10 ng/ml; Repeat 1) of 0.26 nM; an IC50 nM (inhibition of neurite outgrowth, PC12 cells, rat NGF 10 ng/ml; Repeat 2) of 0.24 nM; an IC50 µg/ml (inhibition of neurite outgrowth, PC12 cells, rat NGF 10 ng/ml; Repeat 1) of 0.039 µg/mL; an IC50 µg/ml (inhibition of neurite outgrowth, PC12 cells, rat NGF 10 ng/ml; Repeat 2) of 0.035 µg/mL.
